Assay results from patent US20100064383A1.

Target: bHLH protein EGL3 from Arabidopsis (Arabidopsis) (UniProt Q9CAD0)
Experiment: cell-based or functional assay

UniProt Q9CAD0, sequence (Q9CAD0 whole entry): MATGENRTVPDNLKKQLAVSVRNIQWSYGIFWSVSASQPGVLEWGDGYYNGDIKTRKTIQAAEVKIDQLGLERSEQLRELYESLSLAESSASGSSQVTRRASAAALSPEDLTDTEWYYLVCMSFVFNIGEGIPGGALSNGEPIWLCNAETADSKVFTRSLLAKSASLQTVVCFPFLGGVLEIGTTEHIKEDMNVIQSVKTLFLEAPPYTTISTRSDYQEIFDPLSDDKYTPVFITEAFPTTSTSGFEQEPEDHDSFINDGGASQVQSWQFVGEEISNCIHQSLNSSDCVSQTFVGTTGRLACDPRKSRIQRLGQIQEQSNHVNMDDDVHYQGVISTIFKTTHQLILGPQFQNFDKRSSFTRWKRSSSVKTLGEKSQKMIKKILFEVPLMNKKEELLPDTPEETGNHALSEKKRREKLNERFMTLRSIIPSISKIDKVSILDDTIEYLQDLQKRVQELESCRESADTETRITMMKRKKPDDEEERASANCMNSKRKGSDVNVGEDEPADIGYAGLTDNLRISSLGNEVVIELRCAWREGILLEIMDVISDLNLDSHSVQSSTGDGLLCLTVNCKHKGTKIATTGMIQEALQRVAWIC

- induction of the VvLDOX promoter, dual-luciferase transient assay in grape cells (fold over control without MYB factor): 125 fold
Substance: VvMYBPA1
